Results reported in patent US7252951B2, “Essential downstream component of the wingless signaling pathway and therapeutic and diagnostic applications based thereon” (Universität Zurich, priority 2000, dated 2007).

Tested on: Arm-Tcf transcriptional activity
Test: Tcf-reporter gene (TOPFLASH luciferase) assay in HEK293 cells
Type: cell-based
Details: 4 ng pcDNA3-ΔArm, 200 ng pcDNA3-EGFP-hLgs-peptide, 48 h after transfection, normalized for renilla luciferase
Experimental: FIG. 15(A) Effect of the expression of Lgs sequence homology 2-peptides on Tcf transcriptional activity. HEK293 cells at 50% confluence were plated into 24-well plates and transfected by a lipofection method. 240 ng of TOPFLASH luciferase reporter plasmid (Upstate biotechnology, New York, USA), 4 ng of pcDNA3-ΔArm, 200 ng of pcDNA3-EGFP-Lgs-peptide and 10 ng of a renilla luciferase reporter plasmid pRL-SV40 (Promega Corporation, Madison USA) were diluted into 25 μl of OPTI-MEM Medium (Life Technologies, Inc.) and combined with 1.2 μl of Lipofectamine (Life Technologies, Inc.) in 25 μl OPTI-MEM. After incubation for 20 min, 0.175 ml of OPTI-MEM was added and the mixtures were overlaid onto monolayers of cells. After culturing at 37° C./5% CO2 for 6 hr, 0.225 ml of OPTI-MEM containing 20% FCS was added to the cultures. […]
The effect of Lgs on Tcf transactivation activity can be performed in a cell culture system using a Tcf reporter gene. A Tcf-responsive reporter gene is a contruct which comprises a readily detectable or assayable gene such β-galactosidase, green fluorescent protein, chloramphenicol acetyltransferase or luciferase, linked in cis to a Tcf response element and a minimal promoter. […]

Row | Molecule | Arm-Tcf transcriptional activity (Tcf-driven luciferase)
1 | hLgs/Bcl9(279–392): Fragment (amino acids 279–392) of human Lgs/Bcl9 with a sequence homology domain, expressed as EGFP fusion from pcDNA3 (protein, left off: large carriers) PGVENKLIPSVGSPASSTPLPPDGTGPNSTPNNRAVTPVSQGSNSSSADPKAPPPPPVSSGEPPTLGENPDGLSQEQLEHRERSLQTLRDIQRMLFPDEKEFTGAQSGGPQQNP | strongly inhibit
2 | hLgs/Bcl9(199–392): Fragment (amino acids 199–392) of human Lgs/Bcl9 with a sequence homology domain, expressed as EGFP fusion from pcDNA3 (protein, left off: large carriers) TIVSFHIQNISNNKTERSTAPLNTQISALRNDPKPLPQQPPAPANQDQNSSQNTRLQPTPPIPAPAPKPAAPPRPLDRESPGVENKLIPSVGSPASSTPLPPDGTGPNSTPNNRAVTPVSQGSNSSSADPKAPPPPPVSSGEPPTLGENPDGLSQEQLEHRERSLQTLRDIQRMLFPDEKEFTGAQSGGPQQNP | strongly inhibit
